Results on 1 substance are retold here after article PMC13076993.

The target of test [1] is human PD-1 (programmed cell death 1) on Jurkat cells (human) (UniProt Q15116).
Test [2] has the same target. The source holds these as a separate data set.

Sequence of UniProt Q15116 (Q15116 25-288): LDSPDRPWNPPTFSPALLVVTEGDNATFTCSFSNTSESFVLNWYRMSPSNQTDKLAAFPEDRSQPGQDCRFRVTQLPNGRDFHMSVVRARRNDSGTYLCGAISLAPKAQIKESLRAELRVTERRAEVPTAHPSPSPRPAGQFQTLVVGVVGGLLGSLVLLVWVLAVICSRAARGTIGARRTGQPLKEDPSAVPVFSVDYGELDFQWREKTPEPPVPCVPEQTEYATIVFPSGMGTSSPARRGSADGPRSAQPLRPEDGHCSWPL

“human PD-L1 extracellular domain (from E. coli) (from UniProt Q9NZQ7 19-238) (ligand)” had a force at which the bond lifetime peaks in test [1] of 7 pN. Besides, the IL-2 secretion of Jurkat cells stimulated with CO-L1 beads (CD3 antibody and PD-L1) in the presence of soluble S-PDL1 at various concentrations in test [2] is 100 µg/mL.
